Assay: yeast display, Sf9 membrane polyspecificity reagent, FACS + sequencing; frameworks hold sequencing errors
How it was run: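 In a synthetic yeast display library (Saccharomyces cerevisiae BJ5465), nanobody expression was induced with galactose for 36–48 hours. FACS gates were set low and high (top ~1%) using anti-HA fluorescence for expression and streptavidin fluorescence for binding of the Sf9 membrane reagent. Each polyreactivity label is drawn from the gate of origin.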

Sequence | polyreactivity (PSR sort gate)
QVQLVESGGGLVQAGGSLRLSCAASGSTLFIYAMGWYRQAPGKEREFVAGISYSGGSTYYADSVKGRFTISRDNAKNTVYLQMNSLKPEDTAVYYCAARTFSKPLTYRPYSGLFYYWGQGTQVTVSS | high polyreactivity
QVQLVESGGGLVQAGGSLRISCAASGSTFDIYAMGWYRQAPGKERELVAAISNSGDTYYADSVKGRFTISRDNAKNTVYLQMNSLKPEDTAVYYCNADFHDWFDYWGQGTQVTVSS | high polyreactivity
QVQLVESGGGLVQAGGSLRLSCAASGSTFFNYAMGWYRQAPGKEREFVARIRWRGGSTYYADSVKGRFTISRDNAKNTVYLQMNSLKPEDTAVYYCNADYWGHGGLYDYWGQGTQVTVSS | high polyreactivity
QVQLVESWAGIVQAGGSLRVSCAASGSTFDRYAMGWYRQAPGKERELVAAISWSAGRTYYADSVKGRFTISRDNAKNTVYLQMNSLKPDDTAVYYCAADQIVSGTYDYYWGQGTHVTVSS | low polyreactivity
QVQLVESGGGLVQAGGTLRLSCAASGYIFAWYAMGWYRQAPGKERELVATITWRGGSTYYADSVKGRFTISRDNAKNTVYLQMNSLKPEDTAVYYCNKDVTPLHYDSWGQGTQVTVSS | high polyreactivity
QVHLVESGGGLVQAGGSLRLTCAASGRIFSSYAMGWYRQAPGKVRELVPAITRGGSTYYADSVKGRFTISRDNAKYTVYLQMNSLKPEDTGVYYCAGRQPYRYWFWGNEDFWGQGSQVTVSS | high polyreactivity
QVQLVESGGGLVQAGGSLRLSCAASGSTFRRYAMGWYRQAPWKERELVAAITRRGITYYADSVKGRFTISRDNAKNTVYFQMNSLKPEDTAVYYCAATTFGPYALYPRYYYWGQGTQVTVSS | high polyreactivity
QVQLVESGGGLVQAGGSLRLSCAASGRILYSYAMGWYRQEPGQEREFVAAIRRSGGSTYYADSVKGRFTISRDNAQNTVYLQMNSLKPEETAVDYCAAGRRSSGSYDYWGQGTQVTVSS | high polyreactivity
QVHLVESGGGLVQAGGSLRLSCDASGFTFYWYAMGWYRQPPGKERELVAAISNRGGSKYYADSVKGRFTISRDNAKNTVYLQMNSLKPEDTAVYYCGAEWYGRMYYWGQGTQVTVSS | high polyreactivity
QVQLVESGGGLVQAGGSLRLSCAASGRTFKYNAMGWSRPAPGKERELVAAISWSGGRTYYADSVKGRFTISRDNAKNTVYLQMNSLKPEDTAVYYCAAGVFKKYRPSGRYYYWGHGTQVTVSS | high polyreactivity
QVQLVESGGGLVQAGGSLRLSCAASGRIFGSYAMGWYRPAPGKERELVAGIRSVGSTNYADSVKGRFTISRDNAKNTVYLQMNSLKPEDTAVYYCAARLWHLSYAGQGGDYWGQGTQVTVSS | low polyreactivity
QVQLVESGGGLVQAGGSLRLSCAASGITFYYYAMGWYRQAPGKERELVAAINWSGTSTYYADSVKGRFTISRDNAKNTVYLQMNSLKPEDTAVYYCNAERGRSFWWAYDYWGQGTQVTVSS | low polyreactivity
QVQLVESGGGLVQAGGSLRLSCAASGSTFGFNAMGWYRQAPGKERELLPLFWSGGSTYYADSVKGRFTISRDNAKNTVYLQMYSLKPEDTAVYYCNKDSPPITRYDYWGQGTQVTVSS | low polyreactivity
QVQLVESGGGLVQAGGSLRLSCAASGRTFTSYAMGWYRQAPGKERELVATISWSGGSTYYADSVKGRFTISRDNAKNTVYLQMNSLKPEDTAVYYCAALKPWTTGYGDRFDYWGQGTQVTVSS | low polyreactivity
QVQLVESGGGLVQAGGSLRLSCAASGSTYRANAMGWYRQAPVKERELFASITNSGSSTYYADSVKGRFTISRDNAKNTVYLQMNSLKPEDTAVYYCNAERTIAGYYYWGQGTQVTVSS | low polyreactivity
QVQIVESGGGLVQAAVSLPISCPASGSIFGSYAMGWYRQAPGKERELVAAISKSGGSTYYADSVKGRFTISRDYAKNTVNLQMNSLKPEDTEVYYCAARAFLYAYRAYDYWGQGTQVNVSS | high polyreactivity
QVQLVESGGGLVQAGGSLRLSCAASGSTIKYYAMGWYRPAPGKERELVAAISKGATRTYYADSVKGRFTISRDHAKNTVYLQMNSLKPEDTAVYFCAADRLKFPCEYDYWGHGTQVTVSS | high polyreactivity
QVQLVESGGGLVQAGGSLRLSCAASGFILGYYAKGWSRQAPGKERELDAITSGDSTYYADSVKGRFTISRDTAKNTVYLQMNSLKPEDTAVYYCNAEASIERRYRGIIAVITRYDYWAQGTQVTVSS | high polyreactivity
QVQLVESGGGLVQAGGSLRLSCAASGRTFFGNAMGWYRQAPGKERELVAVISQGGGSTYYADSVKGRFTISRDNAKNTVYLQMNSLKPEDTAVYYCAKRYPHFGSGQLGGTYNYWGQGTQVTVSS | low polyreactivity
QVQLVESGGGLVQAGGSLRLSCAASGRIFEYYAMGWYRQAPGKERELVAVISSGSSTNYADSVKGRFTISRDNAKNTVYLQMNSLKPEDTAVYYCAAEYSVYYRFSDGDYWGQGTQVTVSS | low polyreactivity
QVQLVESGGGLVQAGGSLRLSCAASGRIIGSNTMGWYRQAPGKEREFVATISSSGGSTYYADSVKGRFTISRDNAKNTVYLQMNSLKPEDTSVYYCAAPWSSGSRGGYDYWGQGTQVTVSS | high polyreactivity

Sequence | polyreactivity (PSR sort gate)
QVQLVESGGGLVQAGGSLRLSCAASGLIFYRYTMGWNRQAPGKERELVAGITSGGRTYYADSVKGRFTISRDNAKNTFYLQMNSLKPEDTAVYYCAARYFPARTRYYYWGQGTQVTVSS | high polyreactivity
QVQLVESGGGLVQAGGSLRLSCAASGLTIQRNDMGWYRQAPGKEREFVATITSNAGSTYYADSVKGRFTISRDNAKNTVYLQMNSLKPEDTAVYYCARERWWGDGYWGQGTQVTVSS | high polyreactivity
QVQLVESGEGIVQAGGSLRLSCAASGSIFGIYVMGWYRQAPGKERELVAAITFGGGSTYYADSVKGRFTISRYNAKNSVYLKMNRLKPEDTSVYYCAAKSYDEGLYRRPRDYWGQGTQVTESS | high polyreactivity
QVQLVESGGGLVQAGGSLRLSCAASGIIFYRYAMGWYRQAPGKERELVAAISASGDSTYYADSVKGRFTISRDNAKNTVYLQMNSLKPEDTAVYYCAADYGYRYDYWGQGTQVTVSS | low polyreactivity
QVQLVESGGGLVQAGGSLRFSCAASGFTFSYYAMGCYRQAPGKERELVAAISWSGGSTYYADSVKGRFTISRDTAKNTVYLQMNSLKPEDTAVYYCAAYLFYSSRSSYYGYDYWGQGTQVTVSS | high polyreactivity
QVQLVESGGGLVQAGGSLRISCAASGFTFSYNTMGWYRQAPGKERELVAAITGDVSTNYADSVKGRFTISRDNAKNTVYLQMNSLKPEDTAVYYCAARPNFPGYEDLSVDFEYWGQGTQGTVSS | low polyreactivity
PVQLVESGGGLVQAGGSLRLSCAASGSTFYPNAMGWYRQAPGKEWELVAASTAGGSTYYADSVKGRFTISRDNAKNTVYLQMTSLKPEDTAVYSCAADFYWYWWQDWYDYWGQGTQVTVSS | high polyreactivity
QVQLVESGGGLVQAGGSLRLSCAASGRISWGYAMGWYRPAPGKERELVAVINFNGGRTYYADSVKGRFTISRDNAKNTVYLQMNSLKPEDTAVYYCAADSGYEYDYWGQGTQVTVSS | low polyreactivity
QVQLVESGGGLVQAGGSLRLSCAASGRIFRYNIMGWYRPAPGKERELVAAIRQIGGSTYYADSVKGRFTISRDNAKNTVYLQMNSLKPEDTAVYYCAADSTVEATPFFVEYDYWGQGTQVTVSS | low polyreactivity
QVQLVDSGGGLVQAGGSLRLSCAASGSTVAYYAMGLYRQPTVKERELVAAITRGGSTYYADSVKGRFTISRDNAMNTVYLHLNSLKPEDTAVYYCSAEFVVQYYVYGYTLGYDYWGQGTQVTVSS | high polyreactivity
QVQLVESGGGLVQAGGSLRLSCAATGRTFSEYVMGWYRQAPGKERELVAAISDRGTRTYYSDSVKGRFTISRDNAKNNVYLPMNSLKPEDTAVYYCYAGLTYNHDPYDYWGQGTQVTVSS | high polyreactivity
QFHLVESGGGLVQAGGSLRLSCAASGITFGYYAMGWYRQAPGKERELVAAISGSASRTYYADTVKGRFTISRDNAKNTVYLQMNSLKQEDTAVYYCNARGGGTASCYYYWGPGTQVTVSS | high polyreactivity
QVQLVESGGGLVQAGGSLRLSCAPSGRTFVWNAMGWYRQAPVKERELVAAITSGGSTNYADSVKGRFTISRDNAKNTVYLQMNSLKAEDTAVYYCAAYPDYYEDDYWGQGTQVTVSS | low polyreactivity
QVQLVESGGGLVQAGGSLRLSCAASGLIFGWYAMGWSRQAPGKEREFVASIRYGGGSTYYADSVKGRFTISRDYAKNTVYLQMNSLKPEDTAVYYCAADRYPWHLQYVEYDSDYWGQGTQVTVSS | low polyreactivity
QVQLVESGGGLVQAGGSLRLSCAASGSTLRVNAKGWYRQAPGKERELVAAISYRGGSTYYADSVKGRFTISRDNAKNTVYLQMNSLKPEDTAVYYCAAKQGATRGYYYWGQGTQVTVSS | high polyreactivity
QVQLVESGGGLVQAGGSLRLSCAASGSTSPNAMGWYRQAPGKERELVAAIWSGGTYYADSVKGRFTISRDNAKNTVYLQMNSLKPEDTAVYYCAVTGVYRGFRYGYWGQGTQVTVSS | low polyreactivity
QVQLVESGGGLVQAGGSLRLSCGASGRTFRPYAMGWYRQEPGKERELVAAITGGTRTYYADSVKGRFTISRDNAKNTVYLQMNSLKAEDTAVYYCAVGWAGRYDYWGQGTQVTVSS | low polyreactivity
QVQLLESGGGLVQAGGSLRLSCAASGLIFAGNAMGWYRQAPGKERELVAAISSSGGRTYYADSVKGRFTFSRDNAKNTVYLQMYSLKPEDTAVYYCAAVRTGYYRQYDYWGQGTQVTVSS | high polyreactivity
QVQLVESRGALVQAGGSLRLSCAASGSTIDAYAMGWYRQAPGKERELVAAITRSGGRTYYADSVKGRFTISRDYAKNTVFLQMNSLKPVDTAVFYCNAYCVYVRGEFWGQGTQVTVSS | high polyreactivity
QVQLVESGGGLVQAGCSLRLSCAASGFIFWLYAMGWYRQAPGKERELVASINWSGGDTYYADSVKGRFTISRDNAKNTVYLQMNSLKPEDTAVYYCNAIVLDSKSSFDYWGQGTQVTVSS | low polyreactivity

From the nanobody polyreactivity screen of Harvey et al. (2022)
